Data on 1 molecule can be found in publication PMC9263355 (2022).

This assay deals with 4-1BB (Homo sapiens, UniProt Q07011). The experiment in a line: fluorescence anisotropy. Background: Polarisation of emitted light reports the rotation of a fluorescent probe.
4-1BB, sequence (Q07011 24-255): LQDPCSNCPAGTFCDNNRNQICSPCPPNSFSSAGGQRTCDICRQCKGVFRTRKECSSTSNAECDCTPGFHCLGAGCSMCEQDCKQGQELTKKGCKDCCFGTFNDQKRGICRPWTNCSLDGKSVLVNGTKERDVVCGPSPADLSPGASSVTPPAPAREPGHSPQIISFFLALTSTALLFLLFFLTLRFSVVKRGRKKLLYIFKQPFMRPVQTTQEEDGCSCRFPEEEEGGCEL

B1: Galectin-9N N-terminal CRD (protein)
chain: MAFSGSQAPYLSPAVPFSGTIQGGLQDGLQITVNGTVLSSSGTRFAVNFQTGFSGNDIAFHFNPRFEDGGYVVCNTRQNGSWGPEERKTHMPFQKGMPFDLCFLVQSSDFKVMVNGILFVQYFHRVPFHRVDTISVNGSVQLSYISFQ
As usually defined, the Kd is the free concentration of one partner at which half of the binding sites on the other are occupied at equilibrium, for simple one-to-one binding. A lower Kd goes with a tighter complex. With B1, the Kd was around 1500 nM.
